The data set can be described thus: label from the status in PepcDB records.
Regarding “MTMPIFNISDDVDLVPAMPAEGRDGGSYRRQIWQDDVENGTIVAVWMAEPGIYNYAGRDLEETFVVVEGEALYSQADADPVKIGPGSIVSIAKGVPSRLEILSSFRKLATVIPKP”, the protein production result was “not failed”.

As to “MRRSMRMNMSVASNIHSLLARLLPERVIAPPAPAGRRQRLFSGVGLPSQRSLLVNRLDEANDLQAVYVDLRRQALQGSVSALNDLGWIWLNGKYWRADTVLAGHLLRMAALQGNAAAWFNLGQQHYFGKGIDPSYVQAAECYRQAFDRGMLHAAAALGDLYEEEVCDGDLEWQVDLVQAYQWFLRGAEQGEARCRFEMGYRLMHGLHVEANLKAALYWLELAAAAGVVQAAEELAVHFSSRDAVRYQEWRDRAVQMGSTLALTMKLEDQIHP”, the protein production entry is “failed”.

As for “MDSQELKTLINYYCQERYFHHVLLVASEGIKRYGSDPVFRFYHAYGTLMEGKTQEALREFEAIKNKQDVSLCSLLALIYAHKMSPNPDREAILESDARVKEQRKGAGEKALYHAGLFLWHIGRHDKAREYIDRMIKISDGSKQGHVLKAWLDITRGKEPYTKKALKYFEEGLQDGNDTFALLGKAQCLEMRQNYSGALETMNQIIVNFPSFLPAFVKKMKLQLALQNWDQTVETAQRLLLQDSQNVEALRMQALYYVCREGDIEKASTKLENLGNALDAMEPQNAQLFYNITLAFSRTCGRSQLILQKIQTLLERAFSLNPQQSEFATELGYQMILQGRVKEALKWYKTAMTLDETSVSALVGFIQCQLIEGQLQDADQQLEFLNEIQQSIGKSAELIYLHAVLAMKKNKRQEEVINLLNDVLDTHFSQLEGLPLGIQYFEKLNPDFLLEIVMEYLSFCPMQVSNYGTYFQGCVYLMFYERT”, the protein production result is reported as “failed”.

On to “MSAKIVTVFNQKGGCGKTTVSMHIAGTLGVRGSKTLLVDMDEQGTATRWAAQAPEEKPFPASVIGLAPSGGAMHREVRKFIADYDYIVVDCPPAVHSPASSSALLISDIAIIPVVPSPPDLWAAVAAKALAQQAQVTNETLRVRVLANMVQRRVSLAKQAIEILGDDGDIPLMESMIGSRSAFRECQAIGATVHGVPGAREAINEVDIMVNEVLQLLREGQA”, for which the protein production result is recorded as “failed”.

For “MAAGAAEAAVAAVEEVGSAGQFEELLRLKAKSLLVVHFWAPWAPQCAQMNEVMAELAKELPQVSFVKLEAEGVPEVSEKYEISSVPTFLFFKNSQKIDRLDGAHAPELTKKVQRHAS”, the protein production result is “not failed”.

For the sequence “MQLYYLGPKGTFSYLACRQYFSENEATFQPKSNLFEVIKAVADDDTSIGVVPIENSIEGTINIVADALAQQDVFAHGEIRLDINFALYGNGTDSISDIKKVYSIAPAISQTTNYIHQHQFDYDYVDSTIQSLTKIENGVAAIAPLGSGEAYGFTPIDTHIEDYPHNVTRFLVIKNQQQFDQNATSLMFLITPMHDKPGLLASVLNTFALFNINLSWIESRPLKTQLGMYRFFVQADSAITTDIKKVIAILETLDFKVEMIGAFN”, the protein production entry is recorded as “not failed”.

For the sequence “MKKKIIIAIVASAITMTHFVGNTYADSKTEVSVTAPYNTNQIAKWLEAHAKPLKTTNPTASLNDLKPLKNMVGSASIVGLGEATHGAHEVFTMKHRIVKYLVSEKGFTNLVLEEGWDRALELDRYVLTGKGNPSQHLTPVFKTKEMLDLLDWIRQYNANPKHKSKVRVIGMDIQSVNENVYNNIIEYIKANNSKLLPRVEEKIKGLIPVTKDMNTFESLTKEEKEKYVLDAKQISALLEENKSYLNGKSKEFAWIKQNARIIEQFTTMLATPPDKPADFYLKHDIAMYENAKWTEEHLGKTIVWGHNGHVSKTNMLSFIYPKVAGQHLAEYYGKRYVSIGTSVYEGQYNVKNSDGEFGPYGTLKSDDPNSYNYIFGQVKKDQFFIDLRKANGVTKTWLNEQHPIFAGITTEGPDIPKTVDISLGKAFDILVQIQKVSPSQVHQLEHHHHHH”, the protein production result is listed as “not failed”.

For the sequence “MQTFVLATNSETVSQTLCSYLEGVLDLEDSVYAVNSQPGGDRTPPDAVADGKAALEVVSDRLGDQVSVETYQIIRGNSPADDIFDIAAEVDADELVIGVRKRSQTDRLIFGSVAQDIMRQSDYPMRVVPRD”, the protein production entry was “failed”.

For the sequence “MKLSIHGRKITLTDAIRKYAEEKISKVEKFNDSIIKIDATLAASKLKTGNAHVTEILAYLSGSTLKATATESDLYASIDKAVDIMESLLKKHKEKRSRAKVQDDTRKKSYSFDYIVEPEEKLSDEKKLVRVYLPLKPMEISEAILQLEYLNRVFFAFTNTTTGKMAVVYKRKDGDYGVIED”, the protein production entry is “failed”.

For the sequence “MLNFKTFSDLRPKKTRAFVFVKILRLWNWPPNYFGEEPTMILVDEKGHRIDAKSSRHAYKEEMISTLREGKWYILSNFKVVVANPLERFSTHVFQIEFLKKTTMEPVTPKSRYHFIECVDFHTIKHAAPIQKKFVVDAMGVIESVSPIGKIPWVARDWESDFASRYLVFTLKDSMHKYIKCVAVGSSCEEFERKWYKKISEPNFKMEPVMIILRFWKISEFEGKPCLISVYGCSKVHIDPNFRGIDKNNYL”, the protein production entry was “failed”.

“MKKGSLAIVLGSLLASGAFYTALADGMPAKQQHNNTGESVELHFHYPIKGKQEPKNSHLVVLIEPKIEINKVIPESYQKEFEKSLFLQLSSFLERKGYSVSQFKDASEIPQDIKEKALLVLRMDGNVAILEDIVEESDALSEEKVIDMSSGYLNLNFVEPKSEDIIHSFGIDVSKIKAVIERVELRRTNSGGFVPKTFVHRIKETDHDQAIRKIMNQAYHKVMVHITKELSKKHMEHYEKVSSEMKKRK”: the protein production result is “failed”.

For the sequence “MTDLLLDGSEADNAQTVLNAARIELLSPRLANQIAAGEVVERPASVIKELLENSLDSGARRIDIDVEQAGIKLLKVRDDGGGISSDDLPLALARHATSKIRDLEDLERVMSLGFRGEALASISSVARLTLTSRTRDADQAWQVETEGRDMDARVQPAAHPVGTSVEVRDLFFNTPARRKFLKAEKTEFDHLHEVIKRMALARFDVAFHLRHNGKTVLSLHEAHDDTARARRVSAICGPGFLEQALPIEIERNGLHLWGWVGLPTFSRSQADLQYFFVNGRAVRDKLVAHAVRQAYRDVLFNGRHPTFVLFFEVDPAAVDVNVHPTKHEVRFRDGRMVHDFLYGTLHRALGDVRPENQLGGSVPAAAEPRPTGPDAGEFGPQGEMRLANNVLEQPQGEPFARPAGGGSGSGYQYSPRPTTGVPVAEAQSAYREFFAPLPGTTPSALPESPSDIPPLGYALAQLKGIYILAENAHGLVLVDMHAAHERIMYERLKIAMANEGLSGQPLLVPESIAVSQREADCAEEHITTFQRLGFELQRLGPETLAIRQIPALLKQAEANRLVSDVLADLMEYGTSDRVQAHMNELLGTMACHGAIRANRRLAIPEMNGLLRDMENTERSGQCNHGRPTWTQMGLSDLDKLFLRGQ”, the protein production entry is on record as “failed”.

For the sequence “MGHKQSVDSRGKGRKVPGSSSMVQKHRVESSGGAIISGPSLFDNLPEDCISNIISFTSPRDACVAASVSKTFESAVNSDSVWDKFLPSDYSSLVPPSRVFSSKKELYFAICDNPVLVEDGGKSFWLEKENGKKCFMLSPKKSMWITWVSTPQYWRWISIPEARFEEVPELLNVCWFEVRGGMNTKELSPGTRYSAYIVFKTKNGCPNLGDVPVEATVGLVGQESSQRHIYFVGPSDQRRDRETRDVTRPTKRKDGWMEAELGQFFNESGCDVVDTSILEIKTPYWKRGLIIQGIEFRPTKSLFYI”, the protein production entry is given as “not failed”.

As for “MLPLSLLKTAQGHPMLVELKNGETYNGHLVNCDTWMNIHLREVICTSKDGDRFWRMPECYIRGNTIKYLRVPDEVIDKVQEEKTRTDRKPPGVGRGRGRGVDDGGARGRGRGTSMGKMGGNRGAGRGRG”, the protein production entry is on record as “failed”.

As to “MSDTNSGGGRQAASGPAPRGRLPFRRRVALVAVARPLIVTVGLVTAYYLLPLDERLSAGTLVSLVCGLLAVLLVFCWEVRAITRSPHPRLRAIEGLAATLVLFLVLFAGSYYLLGRSAPGSFSEPLNRTDALYFTLTTFATVGFGDITARSETGRILTMAQMTGGLLLVGVAARVLASAVQAGLHRQGRGPAASPRSGAAEEPEAGP”, the protein production result is recorded as “failed”.

As to “MDISSTEIWDAIRRNSFLLYYQPKVDAKTNELIGFEGLIRLKTATAILAPADFFEDIALLNATREMQDFVAETAIEQINQLGGRFSISINIPAHYVVSSNYMTFLYDYVKEHLKYPECLEIEIIERGEITELAVADKNLRKIKKLGVTVSMDDFGKGYSSLAYLRSLPIDIVKTDMSFIALLKTDRKQQIIIQAIVNLCHDLGGKVVTEGVEDIEQVKTLREMKVDYFQGYYFSRPLPMKEIKEKYSIV”, the protein production result is recorded as “failed”.
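Note: failed if final PepcDB status was selected cloned or expressed and not failed if soluble or beyond.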
